From publication PMC11831459, “Lactylation of Histone H3k18 and Egr1 Promotes Endothelial Glycocalyx Degradation in Sepsis‐Induced Acute Lung Injury” (Advanced Science, 2024)

Target: T1, His-EGR1 (mouse, UniProt P08046 1-533)
T1 construct: Early growth response protein 1 (EGR1), mouse; plasmid pET28a-EGR1; also called His-tagged EGR1; source: E. coli BL21(DE3), purified (Ni-NTA)
Assay: pull-down; GST pull-down with affinity purified proteins; GST bait on GSH magnetic beads (BersinBio GST-pull down kit), His-EGR1 as prey; SDS-PAGE or Western blot
Conditions: both partners purified

T1 sequence (P08046 whole entry): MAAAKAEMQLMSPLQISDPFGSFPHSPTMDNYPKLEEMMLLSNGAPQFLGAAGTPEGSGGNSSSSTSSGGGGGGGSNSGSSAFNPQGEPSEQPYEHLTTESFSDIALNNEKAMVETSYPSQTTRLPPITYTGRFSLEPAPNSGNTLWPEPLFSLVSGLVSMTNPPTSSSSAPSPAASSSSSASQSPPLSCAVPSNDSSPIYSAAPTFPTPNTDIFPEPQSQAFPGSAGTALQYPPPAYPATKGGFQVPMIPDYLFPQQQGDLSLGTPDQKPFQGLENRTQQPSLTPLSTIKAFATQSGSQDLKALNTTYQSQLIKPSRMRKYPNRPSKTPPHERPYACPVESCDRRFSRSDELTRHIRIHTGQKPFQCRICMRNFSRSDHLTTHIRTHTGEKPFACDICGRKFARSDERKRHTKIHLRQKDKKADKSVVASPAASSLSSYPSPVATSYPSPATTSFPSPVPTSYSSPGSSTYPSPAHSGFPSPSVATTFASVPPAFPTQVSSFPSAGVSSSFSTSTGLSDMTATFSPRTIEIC

binding result: binds
B1: GST-KAT2B-WT (enzyme, mouse, UniProt Q9JHD1 1-813, looked up)
chain: MAEAGGAGSPALPPAPPHGSPRTLATAAGSSASCGPATAVAAAGTAEGPGGGGSARIAVKKAQLRSAPRAKKLEKLGVYSACKAEESCKCNGWKNPNPSPTPPRGDLQQIIVSLTESCRSCSHALAAHVSHLENVSEEEMDRLLGIVLDVEYLFTCVHKEEDADTKQVYFYLFKLLRKSILQRGKPVVEGSLEKKPPFEKPSIEQGVNNFVQYKFSHLPSKERQTTIELAKMFLNRINYWHLEAPSQRRLRSPNDDISGYKENYTRWLCYCNVPQFCDSLPRYETTKVFGRTLLRSVFTIMRRQLLEQARQEKDKLPLEKRTLILTHFPKFLSMLEEEVYSQNSPIWDQDFLSASSRTSPLGIQTVISPPVTGTALFSSNSTSHEQINGGRTSPGCRGSSGLEANPGEKRKMNNSHAPEEAKRSRVMGDIPVELINEVMSTITDPAGMLGPETNFLSAHSARDEAARLEERRGVIEFHVVGNSLNQKPNKKILMWLVGLQNVFSHQLPRMPKEYITRLVFDPKHKTLALIKDGRVIGGICFRMFPSQGFTEIVFCAVTSNEQVKGYGTHLMNHLKEYHIKHEILNFLTYADEYAIGYFKKQGFSKEIKIPKTKYVGYIKDYEGATLMGCELNPQIPYTEFSVIIKKQKEIIKKLIERKQAQIRKVYPGLSCFKDGVRQIPIESIPGIRETGWKPSGKEKSKEPKDPEQLYSTLKNILQQVKNHPNAWPFMEPVKRTEAPGYYEVIRFPMDLKTMSERLRNRYYVSKKLFMADLQRVFTNCKEYNPPESEYYKCASILEKFFFSKIKEAGLIDK
notes: Histone acetyltransferase KAT2B, mouse; plasmid pGEX-4T-1-KAT2B; source: E. coli BL21(DE3), purified (glutathione column)
